From publication PMC6436931, “Activation of the Endonuclease that Defines mRNA 3′ Ends Requires Incorporation into an 8-Subunit Core Cleavage and Polyadenylation Factor Complex” (Molecular Cell, 2019)

Legend:
Cft1;Pfs2;Yth1;Fip1;Pap1 = Cft1;Pfs2;Yth1;Fip1;Pap1 (Saccharomyces cerevisiae;Saccharomyces …, UniProt Q06632;P42841;Q06102;P45976;P29468 1-1357;1-465;1-208;1-327;1-568, ||||); test: EMSA; CPFpol; EMSA: 50 nM RNA, 0.25-4.0 uM protein, protein diluted in 10 mM HEPES pH 7.9, 150 mM NaCl, 0.5 mM Mg(OAc)2, plus 1x loading dye (orange G, glycerol, EDTA); 30 min on ice; native 6% acrylamide/TBE PAGE; conditions: protein: recombinant;recombinant;recombinant;recombinant;recombinant; tags: ;3C-SII;3C-8H; untagged in CPFpol+Cft2;;SII (Pap1-SII) when alone; untagged in CPFpol and CPFcore; copies: 1;2;1;1;1; label: 5'-FAM
Rna14;Rna15 = target: T1, Rna14;Rna15 (Saccharomyces cerevisiae;Saccharomyces …, UniProt P25298;P25299 1-677;1-296, |); test: EMSA; EMSA: 50 nM RNA, 0.25-4.0 uM protein, protein diluted in 10 mM HEPES pH 7.9, 150 mM NaCl, 0.5 mM Mg(OAc)2, plus 1x loading dye (orange G, glycerol, EDTA); 30 min on ice; native 6% acrylamide/TBE PAGE; conditions: protein: recombinant;recombinant; tags: 6H;; chain copies: 2;2; label: 5'-FAM
T1 sequence 1: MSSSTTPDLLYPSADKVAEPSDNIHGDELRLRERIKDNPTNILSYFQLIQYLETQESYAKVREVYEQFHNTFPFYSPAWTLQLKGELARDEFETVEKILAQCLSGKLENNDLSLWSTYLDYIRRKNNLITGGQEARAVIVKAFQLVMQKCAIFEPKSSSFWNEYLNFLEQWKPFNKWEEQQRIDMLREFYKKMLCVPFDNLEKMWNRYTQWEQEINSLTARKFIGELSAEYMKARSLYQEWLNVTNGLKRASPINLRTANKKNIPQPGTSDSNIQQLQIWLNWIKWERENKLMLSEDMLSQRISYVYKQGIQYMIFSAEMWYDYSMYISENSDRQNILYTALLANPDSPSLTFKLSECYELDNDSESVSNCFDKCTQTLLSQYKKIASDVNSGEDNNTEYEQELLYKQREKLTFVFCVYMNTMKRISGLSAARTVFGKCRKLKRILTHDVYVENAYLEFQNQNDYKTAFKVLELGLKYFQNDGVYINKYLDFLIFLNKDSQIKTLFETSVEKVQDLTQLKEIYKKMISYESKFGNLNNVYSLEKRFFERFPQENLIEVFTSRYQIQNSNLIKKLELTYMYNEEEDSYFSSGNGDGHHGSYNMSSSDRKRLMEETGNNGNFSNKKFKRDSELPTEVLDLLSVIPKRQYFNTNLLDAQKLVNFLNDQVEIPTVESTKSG
T1 sequence 2: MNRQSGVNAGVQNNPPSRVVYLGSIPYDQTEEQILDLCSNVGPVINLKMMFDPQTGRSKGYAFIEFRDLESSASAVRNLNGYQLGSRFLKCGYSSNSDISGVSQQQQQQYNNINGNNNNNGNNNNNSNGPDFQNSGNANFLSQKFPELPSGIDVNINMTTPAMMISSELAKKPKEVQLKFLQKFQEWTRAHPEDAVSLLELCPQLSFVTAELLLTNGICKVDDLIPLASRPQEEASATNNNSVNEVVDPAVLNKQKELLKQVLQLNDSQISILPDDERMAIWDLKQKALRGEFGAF

Pcf11;Clp1 = Pcf11;Clp1 (Saccharomyces cerevisiae;Saccharomyces …, UniProt P39081;Q08685 1-626;1-445, |); test: as above; conditions: protein: recombinant;recombinant; tags: 6H;; copies: 1;1; label: 5'-FAM
[1] = target: Cft1;Pfs2;Yth1;Fip1;Pap1;Cft2;Ysh1;Mpe1 (Saccharomyces cerevisiae;Saccharomyces …, UniProt Q06632;P42841;Q06102;P45976;P29468;Q12102;Q06224;P35728 …, |||||||); test: EMSA; CPFcore; EMSA: 50 nM RNA, 0.25-4.0 uM protein, protein diluted in 10 mM HEPES pH 7.9, 150 mM NaCl, 0.5 mM Mg(OAc)2, plus 1x loading dye (orange G, glycerol, EDTA); 30 min on ice; native 6% acrylamide/TBE PAGE; conditions: tags: ;3C-SII;3C-8H, untagged in CPFpol+Cft2;;SII (Pap1-SII) when alone, untagged in CPFpol and CPFcore;SII (Cft2-SII) when alone, untagged in CPFpol+Cft2 and CPFcore;;3C-SII (C-terminal) in Ysh1-Mpe1 complexes, copies: 1;2;1;1;1;1;1;1, label: 5'-FAM

Chain of Pcf11;Clp1 (P39081 whole entry, chain 1 of 2): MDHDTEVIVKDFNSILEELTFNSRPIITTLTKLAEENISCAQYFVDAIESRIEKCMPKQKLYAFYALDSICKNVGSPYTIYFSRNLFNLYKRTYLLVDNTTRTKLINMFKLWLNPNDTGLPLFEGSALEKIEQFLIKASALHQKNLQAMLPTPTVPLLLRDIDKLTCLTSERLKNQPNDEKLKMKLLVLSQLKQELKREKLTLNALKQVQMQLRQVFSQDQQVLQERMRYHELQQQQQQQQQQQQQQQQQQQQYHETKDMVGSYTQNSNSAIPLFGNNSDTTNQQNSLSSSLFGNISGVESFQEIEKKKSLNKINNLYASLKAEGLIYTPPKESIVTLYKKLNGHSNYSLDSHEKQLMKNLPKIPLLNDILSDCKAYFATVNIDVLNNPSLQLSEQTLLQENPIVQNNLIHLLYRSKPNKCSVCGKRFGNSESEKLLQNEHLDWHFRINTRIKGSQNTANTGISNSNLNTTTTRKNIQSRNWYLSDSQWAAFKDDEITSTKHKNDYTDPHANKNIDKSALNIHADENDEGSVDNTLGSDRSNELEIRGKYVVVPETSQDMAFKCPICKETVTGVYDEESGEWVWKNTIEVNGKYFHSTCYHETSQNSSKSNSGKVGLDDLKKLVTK
Chain of Pcf11;Clp1 (Q08685 whole entry, chain 2 of 2): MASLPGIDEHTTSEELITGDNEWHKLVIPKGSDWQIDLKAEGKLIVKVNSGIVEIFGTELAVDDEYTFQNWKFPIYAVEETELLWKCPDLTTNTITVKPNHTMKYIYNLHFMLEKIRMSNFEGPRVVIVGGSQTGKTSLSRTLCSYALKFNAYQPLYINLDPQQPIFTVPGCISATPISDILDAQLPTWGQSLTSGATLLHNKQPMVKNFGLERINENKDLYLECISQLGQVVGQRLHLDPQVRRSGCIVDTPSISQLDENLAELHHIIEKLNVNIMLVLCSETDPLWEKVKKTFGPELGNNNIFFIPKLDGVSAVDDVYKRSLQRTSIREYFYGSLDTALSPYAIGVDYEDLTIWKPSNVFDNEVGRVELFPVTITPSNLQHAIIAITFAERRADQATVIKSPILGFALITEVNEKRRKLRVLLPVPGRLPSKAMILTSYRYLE

Binder | binding result (Cft1;Pfs2;Yth1;Fip1;Pap1) | binding result (Rna14;Rna15) | binding result (Pcf11;Clp1) | binding result [1]
UUUUUUUUUUUUUUU (ssRNA) [U15] | no binding | binds | no binding | no binding
AAAAAAAAAAAAAAA (ssRNA) [A15] | binds | no binding | no binding | binds
CCCCCCCCCCCCCCC (ssRNA) [C15] | no binding | no binding | no binding | no binding
GGGGGGGGGGGGGGG (ssRNA) [G15] | binds | binds | no binding | binds
AAGAACGUUAUUUAUAUUUCAAAUUUUUCUUUUUU (ssRNA) [CYC1d EMSA probe] | binds | binds | binds | binds
CGUUAUUUAUAUUUCAAAUUUUUCU (ssRNA) [CYC1f EMSA probe] |  | binds | binds | binds
